Data as given in article PMC5845983.

What was measured:
[1] = target: CR1 CCP22-30 (Homo sapiens) (UniProt P17927); test: SPR; conditions: cited from earlier work
[2] = target: CR1 soluble CR1 (Homo sapiens) (UniProt P17927); test: SPR; conditions: cited from earlier work
[3] = target: CR1 bimodular fragment CCP24-25 His6 (human); test: SPR; BIAcore 3000, multiple cycle; CCP24-25 amine-coupled on CM5 (1,000 RU); MBL injected at 20 µl/min in buffer with 3 mM EDTA (methods: HBS-P; legend of Figure 4: 50 mM TEA, 145 mM NaCl, 0.05% P20, pH 7.4); global 1:1 Langmuir fit; apparent KD = kd/ka

MBL, sequence (P11226 21-248): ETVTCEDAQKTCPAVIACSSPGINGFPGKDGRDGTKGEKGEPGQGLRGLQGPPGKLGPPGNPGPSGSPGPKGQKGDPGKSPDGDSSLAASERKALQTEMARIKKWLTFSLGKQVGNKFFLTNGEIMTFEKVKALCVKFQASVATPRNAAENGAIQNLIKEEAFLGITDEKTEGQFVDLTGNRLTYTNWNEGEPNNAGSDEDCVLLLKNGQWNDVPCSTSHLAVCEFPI

MBL (from UniProt P11226)
Kd [1]: 370 pM
Kd [2]: 760 pM

Recombinant mannose-binding lectin (MBL) (from UniProt P11226 21-248) (natural protein)
Kd [3]: 650 pM
koff [3]: 0.00109 s⁻¹
